Measurements: patent publication US20230032087A1 (CULLINAN ONCOLOGY, published 2023)

Target: protein A (UniProt P38507 37-327)
Test: ForteBio Octet HTX (filing: SPR), HCAb on AHC sensors, 1:1 model

B1: CNG-HSA-101 (VHH)
VHH: KVQLVESGGGLVQPGGSLRLSCAASGFTFSSFGMTWVRQAPGKGLEWVSSISGSGSDTLYADSVRGRFTISRDNSKNTLYLQMNSLRAEDTAVYYCTIGGSLSPSSQGTLVTVSS
  Kd: ≤ 1.84 nM
  koff: ≤ 0.0002 s⁻¹
